# Patent US20250304675A1 (MHS CARE INNOVATION, published 2025)
# Residue numbers refer to the chain shown, from its start.
# T1: human gastric inhibitory polypeptide (glucose-dependent insulinotropic polypeptide) (human)
# T1 construct: also called human GIP; hGIP
# T1 peptide: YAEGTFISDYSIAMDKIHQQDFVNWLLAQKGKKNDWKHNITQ
# T2: gastric inhibitory polypeptide (GIP), species not stated at the place of the result (Homo sapiens (Human), UniProt P09681 52-93)
# T2 peptide: T1 peptide
# B1: LC3/HC2 humanized antibody (antibody, V domains shown)
# VH: QVQLVQSGAEVKKPGATVKISCKASGFNIRDYYLHWVQQAPGKGLEWMGWIDPENGDTEYAPKFQGRVTITADTSTNTAYMELSSLRSEDTAVYYCNVYGIYFMDYWGQGTMVTVSS
# VL: DIQMTQSPGTLSLSPGERATLSCRASSSISSNSLHWYQQKPGQAPRLLIYRTSNRATGIPARFSGSGSGTDYTLTISSLEPEDFAVYYCQQGSSFPRMLTFGGGTKVEIKR
# notes: Tested as CHO supernate
# B2: LC3/HC1 humanized antibody (antibody, V domains shown)
# VH: B1 VH with A24V, N77D
# VL: B1 VL
# notes: Tested as CHO supernate
# B3: LC3/HC3 humanized antibody (antibody, V domains shown)
# VH: QVQLQESGAEVKKPGASVKVSCKASGFNIRDYYLHWVRQAPGQGLEWMGWIDPENGDTEYAPKFQGRVTTTADTSISTAYMELSRLRSDDTAVYYCNVYGIYFMDYWGQGTLVTVSS
# VL: B1 VL
# notes: Tested as CHO supernate
# B4: 10g10 monoclonal antibody (original mouse mAb) (antibody, V domains shown)
# VH: QVQLQESGAELVRSGASVKLSCTASGFNIRDYYLHWIKQRPEQGLEWIGWIDPENGDTEYAPKFQDKATVTADTSSNTAYLQLNSLTSEDTAVYYCNVYGIYFMDYWGQGTTVTVSS
# VL: DIQLTQSPSTMAASPGEKITITCSASSSISSNSLHWYQQKPGFSPKLLIYRTSNLASGVPGRFSGSGSGTSYSLTIGTMETEDVATYYCQQGSSFPRMLTFGTGTKLEIKR
# notes: Mouse hybridoma antibody; also called 10g10 mAb; 10g10 GIP mAb
# B5: 14B9 antibody (antibody, V domains shown)
# VH: QVQLQESGAALVRSGASVKLSCTASGFNIKDYYFHWVKQRPDQGLEWIGWIDPENGDTEYAPNFQVKATMTADTYSNTAYLHLSSLTSEDTAVYYCNSYGNNYFDYWGQGTTVTVSS
# VL: DIQLTQSPAIMAASLGQKVTMTCSASSSVSSSYLHWYQQKSGASPKSLIHRTSNLASGVPARFSGSGSGTSYSLTISSVEAEDDATYYCLQWSGFPFTFGSGTKLEIKR
# notes: Comparison antibody
# B6: LC1/HC3 humanized antibody (antibody, V domains shown)
# VH: B3 VH
# VL: DIQMTQSPSSVSASVGDRVTITCRASSSISSNSLHWYQQKPGKAPKLLIYRTSSLQSGVPSRFSGSGSGTDYTLTISSLQPEDFATYYCQQGSSFPRMLTFGQGTKLEIKR
# notes: Tested as CHO supernate
# B7: LC2/HC2 humanized antibody (antibody, V domains shown)
# VH: B1 VH
# VL: B6 VL with M4L, S54N
# notes: CHO supernate in the ELISA; Protein A purified in the neutralization assay; also called mAbH; GIP mAbH
# B8: LC1/HC1 humanized antibody (antibody, V domains shown)
# VH: B1 VH with A24V, N77D
# VL: B6 VL
# notes: Tested as CHO supernate
# B9: LC1/HC2 humanized antibody (antibody, V domains shown)
# VH: B1 VH
# VL: B6 VL
# notes: Tested as CHO supernate
# Legend:
# [1] = molecular target: human gastric inhibitory polypeptide (glucose-dependent insulinotropic polypeptide) (human)
# [2] = molecular target: T1, human gastric inhibitory polypeptide …; experiment: direct binding ELISA, CHO supernate on coated human GIP; 3rd of 10 in the printed order
# Method: (§1) CHO cells co-transfected with the mammalian expression vectors were grown in culture and the supernate collected. The supernate was evaluated for the presence of GIP-binding mAbs by direct binding ELISA Human GIP was fixed to the bottom of the wells on 96-well plates. Serial dilutions of the supernate were added to different wells of the 96-well plate. After a one hour incubation, the wells were washed twice with PBS before a secondary antibody that specifically binds to human IgG was added to each well. The antibody that specifically binds to human IgG was conjugated with the enzyme horse radish peroxidase (HRP). After incubation for one hour, the wells were washed with PBS before the HRP substrate was added. If HRP was present in a well, the substrate was converted to a colored compound. The amount of color intensity was read using a spectrophotometer. The amount of color produced was proportional to the amount of HRP-antibody conjugate remaining in each well. The amount of color produced was also proportional to the amount of mAb bound to hGIP in each well.
# [3] = molecular target: T1, human gastric inhibitory polypeptide …; experiment: direct binding ELISA, CHO supernate on coated human GIP; 6th of 10 in the printed order
# Method: as §1
# [4] = molecular target: T1, human gastric inhibitory polypeptide …; experiment: direct binding ELISA, CHO supernate on coated human GIP; 10th of 10 in the printed order
# Method: as §1
# [5] = molecular target: T2, gastric inhibitory polypeptide (GIP), …; experiment: modified Schild's assay plot, reporter cell line expressing GIP receptors (derived from a functional assay)
# [6] = molecular target: T2, gastric inhibitory polypeptide (GIP), …; experiment: hybridoma screening; assay not further stated
# [7] = molecular target: T1, human gastric inhibitory polypeptide …; experiment: direct binding ELISA, CHO supernate on coated human GIP; 9th of 10 in the printed order
# Method: as §1
# [8] = molecular target: T1, human gastric inhibitory polypeptide …; experiment: direct binding ELISA, CHO supernate on coated human GIP; 7th of 10 in the printed order
# Method: as §1
# [9] = molecular target: T1, human gastric inhibitory polypeptide …; experiment: direct binding ELISA, CHO supernate on coated human GIP; 4th of 10 in the printed order
# Method: as §1
molecule,measurement,setting,value
Fc,"Relative Activity (beta-galactosidase of LGIPR3a reporter cells expressing rat GIPR; Fc mixed with 0.1 nM hGIP; bar as high as that of GIP alone, 0.098, so no neutralization)",[1],0.105
B1,binding result,[2],binds
B2,binding result,[3],binds
B3,binding result,[4],binds
B4,Kd,[5],3200 nM
B5,binding result,[6],no binding
B6,binding result,[7],binds
B7,Kd,[5],2200 nM
B8,binding result,[8],binds
B9,binding result,[9],binds
